Where a chain is given by its changes, count along the chain named. In names and notes the source's numbering stands.
T1: EsCas13d, nuclease-dead (Eubacterium siraeum, UniProt B0MS50, R295A;H300A;R849A;H854A)
T1 sequence: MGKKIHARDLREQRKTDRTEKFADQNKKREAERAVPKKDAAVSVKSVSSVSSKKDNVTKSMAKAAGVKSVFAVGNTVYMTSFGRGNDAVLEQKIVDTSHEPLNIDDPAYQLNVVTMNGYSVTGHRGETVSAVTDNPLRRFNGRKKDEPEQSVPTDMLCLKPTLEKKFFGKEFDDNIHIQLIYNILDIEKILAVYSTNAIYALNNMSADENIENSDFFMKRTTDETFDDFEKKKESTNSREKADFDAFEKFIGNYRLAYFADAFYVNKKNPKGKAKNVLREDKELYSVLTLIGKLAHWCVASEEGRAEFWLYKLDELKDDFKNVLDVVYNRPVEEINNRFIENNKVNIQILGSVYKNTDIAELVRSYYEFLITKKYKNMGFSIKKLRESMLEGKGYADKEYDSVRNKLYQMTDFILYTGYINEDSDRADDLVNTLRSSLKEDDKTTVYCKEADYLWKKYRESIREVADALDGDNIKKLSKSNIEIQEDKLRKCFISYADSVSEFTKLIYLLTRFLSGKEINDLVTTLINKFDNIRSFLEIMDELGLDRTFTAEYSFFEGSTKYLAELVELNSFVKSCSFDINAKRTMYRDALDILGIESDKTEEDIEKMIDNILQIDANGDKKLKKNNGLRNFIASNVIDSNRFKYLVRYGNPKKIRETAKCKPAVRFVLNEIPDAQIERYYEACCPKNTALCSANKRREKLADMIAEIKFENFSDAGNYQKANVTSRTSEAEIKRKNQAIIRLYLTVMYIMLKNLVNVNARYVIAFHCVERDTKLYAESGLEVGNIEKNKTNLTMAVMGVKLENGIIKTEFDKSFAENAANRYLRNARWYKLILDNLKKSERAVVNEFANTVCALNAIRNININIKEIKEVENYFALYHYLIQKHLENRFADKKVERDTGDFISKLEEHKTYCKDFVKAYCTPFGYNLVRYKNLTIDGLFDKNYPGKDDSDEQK

B1: target 1 C4G,C22U (mixed)
RNA 1: CACCCGUGCAAAAAUGCAGGGGUCUAAAACUGAGCGGAUAACCUCUCUAUGG
RNA 2: GGGAAUGGAUCCACAUCUACGAAUUCGUAUCAUAGAGAGGUUAUCCGGUCACCGAGAUCGGAAGAGCACACGU
B2: target 1 insC 3' of 19,insA 3' of 13 (mixed)
RNA 1: B1 RNA 1
RNA 2: GGGAAUGGAUCCACAUCUACGAAUUCGUACCAUCAGAGAGAGUUAUCCGCUCACCGAGAUCGGAAGAGCACACGU
B3: target 1 A14C (mixed)
RNA 1: B1 RNA 1
RNA 2: B1 RNA 2 with U30C, A38C, G48C
B4: target 1 insU 3' of 4,insU 3' of 1 (mixed)
RNA 1: B1 RNA 1
RNA 2: GGGAAUGGAUCCACAUCUACGAAUUCGUACCAUAGAGAGGUUAUCCGCUUCAUCCGAGAUCGGAAGAGCACACGU
B5: target 1 insA 3' of 13,insU 3' of 4 (mixed)
RNA 1: B1 RNA 1
RNA 2: GGGAAUGGAUCCACAUCUACGAAUUCGUACCAUAGAGAGAGUUAUCCGCUUCACCGAGAUCGGAAGAGCACACGU
B6: target 1 insC 3' of 10,insG 3' of 8 (mixed)
RNA 1: B1 RNA 1
RNA 2: B5 RNA 2 with A40G, G41U, U43C, C46G, G48C, C49G, U50C
B7: target 1 A1G,A18U (mixed)
RNA 1: B1 RNA 1
RNA 2: B1 RNA 2 with U30C, A34U, G48C, A51G
B8: target 1 insC 3' of 9,insG 3' of 6 (mixed)
RNA 1: B1 RNA 1
RNA 2: B5 RNA 2 with A40G, G41U, U43A, A44C, C49G, U50C
B9: target 1 insU 3' of 15,insG 3' of 14 (mixed)
RNA 1: B1 RNA 1
RNA 2: B2 RNA 2 with C34A, A35G, G36A, A37G, G38U, A41G
B10: target 1 insA 3' of 21,insG 3' of 3 (mixed)
RNA 1: B1 RNA 1
RNA 2: B5 RNA 2 with U33A, A34U, G35A, A36G, G37A, A38G, G39A, A40G, U51G
B11: target 1 insC 3' of 18,insU 3' of 12 (mixed)
RNA 1: B1 RNA 1
RNA 2: B2 RNA 2 with C34A, A35C, A41G, G42U
B12: target 1 insU 3' of 20,insA 3' of 15 (mixed)
RNA 1: B1 RNA 1
RNA 2: B2 RNA 2 with C34U, G40A, A41G
B13: target 1 A1U,A18U (mixed)
RNA 1: B1 RNA 1
RNA 2: B1 RNA 2 with U30C, A34U, G48C, A51U
B14: target 1 A16U,G17A (mixed)
RNA 1: B1 RNA 1
RNA 2: B1 RNA 2 with U30C, G35A, A36U, G48C
B15: target 1 insA 3' of 22,insC 3' of 15 (mixed)
RNA 1: B1 RNA 1
RNA 2: B2 RNA 2 with C31A, A32C, U33A, C34U, A39C, G40A, A41G
B16: target 1 C6A,U10G (mixed)
RNA 1: B1 RNA 1
RNA 2: B1 RNA 2 with U30C, U42G, C46A, G48C
B17: target 1 insU 3' of 12,insG 3' of 6 (mixed)
RNA 1: B1 RNA 1
RNA 2: B5 RNA 2 with A40G, G41U, C49G, U50C
B18: target 1 insG 3' of 7,insU 3' of 2 (mixed)
RNA 1: B1 RNA 1
RNA 2: B4 RNA 2 with C46G, G47C, C48G, U49C, A52U, U53A
B19: target 1 U3C,G12C (mixed)
RNA 1: B1 RNA 1
RNA 2: B1 RNA 2 with U30C, G40C, G48C, U49C
B20: target 1 A18U (mixed)
RNA 1: B1 RNA 1
RNA 2: B1 RNA 2 with U30C, A34U, G48C
B21: target 1 insG 3' of 21,insA 3' of 8 (mixed)
RNA 1: B1 RNA 1
RNA 2: B2 RNA 2 with A32G, U33A, C34U, A41G, G42U, U44A, A45U, U46A
B22: target 1 A1C,A18U (mixed)
RNA 1: B1 RNA 1
RNA 2: B1 RNA 2 with U30C, A34U, G48C, A51C
B23: target 1 G5U,G15U (mixed)
RNA 1: B1 RNA 1
RNA 2: B1 RNA 2 with U30C, G37U, G47U, G48C
B24: target 1 A9G,U11G (mixed)
RNA 1: B1 RNA 1
RNA 2: B1 RNA 2 with U30C, U41G, A43G, G48C
B25: target 1 insG 3' of 22,insC 3' of 15 (mixed)
RNA 1: B1 RNA 1
RNA 2: B2 RNA 2 with C31G, A32C, U33A, C34U, A39C, G40A, A41G
B26: target 1 insG 3' of 21,insG 3' of 8 (mixed)
RNA 1: B1 RNA 1
RNA 2: B2 RNA 2 with A32G, U33A, C34U, A41G, G42U, U44A, A45U, U46G
B27: target 1 insU 3' of 17,insG 3' of 9 (mixed)
RNA 1: B1 RNA 1
RNA 2: B2 RNA 2 with C34A, A35G, G36U, A41G, G42U, U44A, A45G
B28: target 1 insA 3' of 21,insA 3' of 19 (mixed)
RNA 1: B1 RNA 1
RNA 2: B2 RNA 2 with U33A, C34U, G36A, A37G, G38A, A39G, G40A, A41G
B29: target 1 insA 3' of 17,insC 3' of 13 (mixed)
RNA 1: B1 RNA 1
RNA 2: B2 RNA 2 with C34A, A35G, G36A, A41C
B30: target 1 insC 3' of 11,insA 3' of 8 (mixed)
RNA 1: B1 RNA 1
RNA 2: B5 RNA 2 with A40G, G41U, U42C, C46A, G48C, C49G, U50C
B31: target 1 C22G (mixed)
RNA 1: B1 RNA 1
RNA 2: B1 RNA 2 with U30G, G48C
B32: target 1 insC 3' of 20,insA 3' of 15 (mixed)
RNA 1: B1 RNA 1
RNA 2: B2 RNA 2 with U33C, C34U, G40A, A41G
B33: target 1 A9C,U10G (mixed)
RNA 1: B1 RNA 1
RNA 2: B1 RNA 2 with U30C, U42G, A43C, G48C

Target: T1, EsCas13d, nuclease-dead
Assay: crRNA (strand 1, pre-loaded); Mg2+; 40 mM Tris-HCl pH 7.5, 150 mM NaCl, 6 mM MgCl2, 1 mM DTT, 0.1% Tween-20, 0.2 mg/ml BSA; 25 C; 10 min per concentration, then washed
Details: tags: His6-TwinStrep-SUMO cleaved; N-terminal SNAP kept (SNAP-Surface 488); label: 3' end held by stalled T7 RNA polymerase

Row | Binder | Kd
1 | B1 | 10 ± 2 nM
2 | B2 | 19.5 ± 1.7 nM
3 | B3 | 31 ± 7 nM
4 | B4 | 8.56 ± 0.33 nM
5 | B5 | 3.45 ± 0.26 nM
6 | B6 | 15.7 ± 0.8 nM
7 | B7 | 24.6 ± 1.7 nM
8 | B8 | 14.4 ± 1.2 nM
9 | B9 | 22.5 ± 2.2 nM
10 | B10 | 11.8 ± 0.6 nM
11 | B11 | 28.6 ± 1.7 nM
12 | B12 | 7.6 ± 0.5 nM
13 | B13 | 22 ± 2 nM
14 | B14 | 44 ± 6 nM
15 | B15 | 28.5 ± 2.2 nM
16 | B16 | 13.9 ± 0.7 nM
17 | B17 | 6.24 ± 0.17 nM

Row | Binder | Kd
18 | B18 | 9.6 ± 0.9 nM
19 | B19 | 14 ± 2.3 nM
20 | B20 | 26.4 ± 1.2 nM
21 | B21 | 64 ± 11 nM
22 | B22 | ~40 nM
23 | B23 | 31 ± 4 nM
24 | B24 | 15.1 ± 0.7 nM
25 | B25 | 48 ± 4 nM
26 | B26 | 58 ± 10 nM
27 | B27 | 38 ± 4 nM
28 | B28 | 32.2 ± 2.4 nM
29 | B29 | 35 ± 4 nM
30 | B30 | 41.4 ± 3.2 nM
31 | B31 | 61 ± 11 nM
32 | B32 | 12.2 ± 1.1 nM
33 | B33 | 16.1 ± 0.6 nM

Source: paper PMC10786891, “Massively parallel profiling of RNA-targeting CRISPR-Cas13d”
